# Measured values taken from patent US12491259B2, “Anti-variable MUC1* antibodies and uses thereof” (Minerva Biotechnologies Corporation, priority 2022, dated 2025).
# Experiments:
# [1] = test system: T47D-MUC1* breast cancer tumors; experiment: Breast cancer xenograft, IVIS bioluminescence; assay type: in vivo, NOD/SCID/GAMMA (NSG) mice; settings: from Day 6, 10 mg/kg, DAR 4.2
# Experimental: (§1) FIGS. 57A-57F show bioluminescence photographs of female NOD/SCID/GAMMA (NSG) mice, implanted with 90-day estrogen pellets and then implanted on the right flank with 1M human breast cancer cells that were either T47D wild-type cells that express low to medium levels of MUC1* or T47D-MUC1* cells that had been engineered to express more MUC1*. Day 7 post tumor implantation, the animals were injected with MNC2-MMAE, DAR 3.9, at 5 mg/kg, but was increased to 10 mg/kg for the Day 14 and Day 20 injections.
# as §1, with “58A-58F” for “57A-57F”, “MN20A10-MMAE,” for “MNC2-MMAE,”, “3.0,” for “3.9,”
# (§2) FIGS. 63A-63H show bioluminescence photographs of female NOD/SCID/GAMMA (NSG) mice, implanted with 90-day estrogen pellets and then implanted on the right flank with 1M human breast cancer cells that were either T47D wild-type cells that express low to medium levels of MUC1* or T47D-MUC1* cells that had been engineered to express more MUC1*. […]
# [2] = test system: T47D-wt breast cancer tumors; experiment: Breast cancer xenograft, IVIS bioluminescence; assay type: in vivo, NOD/SCID/GAMMA (NSG) mice; settings: from Day 6, 10 mg/kg increased to 20 mg/kg, DAR 4.2
# Experimental: as §1
# as §1, with “58A-58F” for “57A-57F”, “MN20A10-MMAE,” for “MNC2-MMAE,”, “3.0,” for “3.9,”
# as §2
molecule,measurement,setting,value
MNC2-Deruxtecan (conjugate) VH: EVQLVESGGGLVKPGGSLRLSCAASGFTFSGYAMSWVRQAPGKGLEWVSTISSGGTYIYYPDSVKGRFTISRDNAKNSLYLQMNSLRAEDTAVYYCARLGGDNYYEYFDVWGKGTTVTVSS VL: DIVLTQSPASLAVSPGQRATITCRASKSVSTSGYSYMHWYQQKPGQPPKLLIYLASNLESGVPARFSGSGSGTDFTLTINPVEANDTANYYCQHSRELPFTFGGGTKVEIKRT,tumor burden (bioluminescence),[1],essentially eliminated by Day 26
same,tumor burden (bioluminescence),[2],greatly reduced compared to the controls
